In patent US20230118024A1 (Chugai, published 2023):

T1: recombinant HLA-DQ2.5/33mer gliadin peptide complex (human; wheat)
T1 construct: also called soluble HLA-DQ2.5/33mer gliadin peptide complex
T1 alpha: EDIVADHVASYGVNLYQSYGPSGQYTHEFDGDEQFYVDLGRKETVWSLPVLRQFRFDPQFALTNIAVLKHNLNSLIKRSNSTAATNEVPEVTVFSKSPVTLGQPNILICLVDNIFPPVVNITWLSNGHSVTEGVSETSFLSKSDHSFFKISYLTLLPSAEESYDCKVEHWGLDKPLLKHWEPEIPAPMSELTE
T1 beta: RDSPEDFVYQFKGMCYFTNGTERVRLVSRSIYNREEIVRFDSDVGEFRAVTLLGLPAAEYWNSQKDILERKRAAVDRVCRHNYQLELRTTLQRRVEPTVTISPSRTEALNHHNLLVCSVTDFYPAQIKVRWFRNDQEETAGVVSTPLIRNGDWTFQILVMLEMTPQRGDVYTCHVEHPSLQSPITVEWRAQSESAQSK
T1 peptide: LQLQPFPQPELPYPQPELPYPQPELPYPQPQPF


What was measured:
[1] = target: T2, HLA-DQ2.5/CLIP peptide complex on Ba/F3 cells (human); assay: FACS
T2 construct: also called Ba/F3-HLA-DQ2.5/CLIP peptide

[2] = target: T3, HLA-DQ2.5/omega 2 gliadin peptide complex on Ba/F3 cells (human; wheat); assay: FACS
T3 construct: also called Ba/F3-HLA-DQ2.5/omega 2 gliadin peptide

[3] = target: T4, HLA-DQ2.5/secalin 2 peptide complex on Ba/F3 cells (human; rye); assay: FACS
T4 construct: also called Ba/F3-HLA-DQ2.5/secalin 2 peptide

[4] = target: T5, HLA-DQ2.5/alpha 1b gliadin peptide complex on Ba/F3 cells (human; wheat); assay: FACS
T5 construct: also called Ba/F3-HLA-DQ2.5/alpha 1b gliadin peptide

[5] = target: T6, HLA-DQ2.5/omega 1 gliadin peptide complex on Ba/F3 cells (human; wheat); assay: FACS
T6 construct: also called Ba/F3-HLA-DQ2.5/omega 1 gliadin peptide

[6] = target: T7, HLA-DQ2.5/alpha 2 gliadin peptide complex on Ba/F3 cells (human; wheat); assay: FACS
T7 construct: also called Ba/F3-HLA-DQ2.5/alpha 2 gliadin peptide

[7] = target: T8, HLA-DQ2.5/33mer gliadin peptide complex on Ba/F3 cells (human; wheat); assay: FACS
T8 construct: also called Ba/F3-HLA-DQ2.5/33mer gliadin peptide; HLA-DQ2.5/gliadin peptide complex

[8] = target: T9, HLA-DQ2.5/alpha 1 gliadin peptide complex on Ba/F3 cells (human; wheat); assay: FACS
T9 construct: also called Ba/F3-HLA-DQ2.5/alpha 1 gliadin peptide

[9] = target: T10, HLA-DQ2.5/secalin 1 peptide complex on Ba/F3 cells (human; rye); assay: FACS
T10 construct: also called Ba/F3-HLA-DQ2.5/secalin 1 peptide

[10] = target: T8, HLA-DQ2.5/33mer gliadin peptide complex …; assay: cell-based or functional assay
[11] = target: T1, recombinant HLA-DQ2.5/33mer gliadin …; assay: SPR, Ab captured, 37 C, pH 7.4

Binder | FIG. 30 FACS value (IC17=0, DQN0139bb=100) [1] | FIG. 30 FACS value (IC17=0, DQN0139bb=100) [2] | FIG. 30 FACS value (IC17=0, DQN0139bb=100) [3] | FIG. 30 FACS value (IC17=0, DQN0139bb=100) [4] | FIG. 30 FACS value (IC17=0, DQN0139bb=100) [5] | FIG. 30 FACS value (IC17=0, DQN0139bb=100) [6] | FIG. 30 FACS value (IC17=0, DQN0139bb=100) [7] | FIG. 30 FACS value (IC17=0, DQN0139bb=100) [8] | FIG. 30 FACS value (IC17=0, DQN0139bb=100) [9] | IC50 (read off the curve) [10] [µg/mL] | Kd [11] [nM]
DQN0303hh (antibody, human IgG1, kappa, V domains shown, also called DQN0303Lh) VH: QQHLEESGGGLVKPGGTLTLTCTASGIDFSSYYYMCWVRQAPGKGLEWIACIYTGDGSTYYASWVNGRFTISRSTSLNTVTLQLNGLAAADTATYFCARSYGASSAIGYFNLWGPGTLVTVSS VL: DVVMTQTPSSKSAAVGGTVTIKCQASQNIYSNLAWYQQKPGQRPKLLIYEASTLASGVPSRFRGSGSGTEFTLTISDLECDDAATYYCQNYYYTSSNDFYTFGGGTKVEIKR | 80 | 91.7 | 59.4 | 41.5 | 56.2 | 62.6 | 72.8 | 51.4 | 64.5 |  | 
DQN0235ee (antibody, human IgG1, kappa, V domains shown, also called DQN0235He; DQN0235Le) VH: QQQLEESGGGLVKPGGTLTLTCKAGIDFSTYYYMCWVRQAPGKRPEWIACIFDGDGSTYYASWVNGRFTISKASSTTVTLRMTSLTAADTATYFCARSAGGSSSFGYFNLWGPGTLVTVSS VL: AYDMTQTPSSVSAAVGGTVTIKCQASQSISSSYLAWYHQKPGQSPKLLIYSASTLASGVPSRFKGSGSGTEFTLTISDLACADAATYYCQSYYYFSSNAWHTFGGGTKVEIKR | 82 | 78.8 | 71.1 |  | 75.2 | 81.3 | 70.1 | 52.3 | 73.4 |  | 
DQN0344xx (antibody, human IgG1, kappa, V domains shown, also called DQN0344Hx; DQN0344Lx) VH: QSLEESGGGLVKPGGTLTLTCTASGFSFSSSYWMCWVRQAPGKGLEWVACVYGGSDTTYYASWTKGRFTISKGSSTTVALQVTSLTAADTATYFCARDPLNYYYYGELNLWGPGTLVTVSS VL: AVVLTQTASPVSAAVGGTVTIRCQATENIYSGLAWYQQKPGQPPKVLIYYVSTLASGVPSRFKGSGSGTEYTLTISGVQCDDAATYYCQTYHDISNVTFGGGTKVEIKR |  | 3.7 | 60.6 | 75.3 | 68.8 | 81.9 | 106 | 89.7 | 73.9 | ~0.3 | 
DQN0223hh (antibody, human IgG1, kappa, V domains shown, also called DQN0223Lh) VH: QQQLEESGGGLVKPGGTLTLTCKASRIDFSTYYYICWVRQSPWKGLEWIACIYSGDGYTYYPSWAKGRFSISKTSSTTVTLQVTSLTAADTATYFCARSYGGSSASAYFTLWGPGTQVTVSS VL: AVVLTQTASPVSAPVGGTVTIKCQASQSIGSNLGWYQQKPGQPPKLLIYGASALASGVPSRFKGSGSGTQFTLTINDLECADAATYYCQGYYYSSSAEWHSFGGGTKVEIKR | 60.2 | 59 | 48.4 | 36 | 46 | 46.8 | 59.5 | 27.9 | 47.6 |  | 
DQN0333hh (antibody, human IgG1, kappa, V domains shown, also called DQN0333Lh) VH: QSVEESGGRLVMPGGSLTLTCTASGFSLSSYYMNWVRQAPGKGLEWIGVIYSTDITDYATWATGRFTISKTSTTVDLKMTSLTAADTATYFCARELSPTTSGYIAYLWGPGTLVTVSS VL: AYDMTQTPASVEVAVGGTVTIKCQASQSISSYLAWYQQKPGQPPKLLIYSASTLASGVPSRFKGSGSGTQFTLTVIDVQCDDAATYYCQQTYSGKNVINTFGGGTKVEIKR | 116 | 128 | 106 | 108 | 106 | 118 | 106 |  | 110 |  | 
DQN0356bb (antibody, human IgG1, kappa, V domains shown, also called DQN0356Hb; DQN0356Lb) VH: QEQLVESGGGLVKPEGSLTLTCTASGFSFSSDYSVCWVRQAPGKGLEWIGCIYTGSDITYYASWAKGRFTISKTSSTTVTLQMTSLTAADTATWFCARSWNGYGGYADLWGPGTLVTVSS VL: AYDMAQTPASVEVAVGGTVTIKCQASQSIDNYLAWYQQKPGQPPKLLIYWASTLASGVSSRFKGSGSGTQFSLTISDLECADAATYYCQQYYSNSNVVNTFGGGTKVEIKR | 98.3 | 68.8 | 77.8 | 88 | 76 | 85.6 | 91.1 | 94.9 | 74.5 |  | 
DQN0370hh (antibody, human IgG1, kappa, V domains shown, also called DQN0370Lh) VH: QSLEESGGGLVKPGGPLTLTCTASGFSFSSAYYMCWVRQAPGKGLEWIACIYVGSGSTYYTSWAKGRFTISKVSSTTMTLQMTSLTAADTATYFCARDPLIYYYYGELNLWGPGTLVTVSS VL: AVVLTQTASPVSAPVGGTVTIKCQASEDIYSNLAWYQQKPGQRPKVLIYSASTLASGVSSRFKGSRSGTEYTLSITDLGCADAATYYCQAYYDIGGVTFGGGTKVEIKR | 1 | 65.8 | 68.1 | 79.2 | 73.7 | 83.7 | 107 | 91.2 | 79.2 | ~0.3 | 4.47
